# In the Immune Epitope Database (IEDB):
# Tests used:
# HLA-A*03:01 [1] = experiment: IEDB peptide-MHC binding, purified MHC/competitive/fluorescence; ≥ and ≤ were set here for values at or beyond the usual limits of such assays; conditions: source organism: Zaire ebolavirus
# HLA-B*15:01 [2] = experiment: as above; conditions: source organism: Zaire ebolavirus
# HLA-A*11:01 [3] = experiment: as above; conditions: source organism: Zaire ebolavirus
# HLA-A*02:01 [4] = experiment: as above; conditions: source organism: Zaire ebolavirus
# HLA-A*03:01 [5] = experiment: IEDB peptide-MHC binding, purified MHC/direct/fluorescence; filed as Kd, often an IC50 or EC50 that approximates it; ≥ and ≤ were set here for values at or beyond the usual limits of such assays
# HLA-B*58:01 [6] = experiment: as above
# HLA-B*27:05 = experiment: as above
# HLA-B*15:01 [7] = experiment: as above
# HLA-B*44:02 = experiment: as above
# HLA-A*30:01 [8] = experiment: as above
# HLA-A*26:01 = experiment: as above
# HLA-A*11:01 [9] = experiment: as above
# HLA-A*69:01 = experiment: as above
# HLA-A*24:03 = experiment: as above
# HLA-A*02:01 [10] = experiment: as above
# HLA-A*01:01 [11] = experiment: as above
# HLA-B*08:01 = experiment: as above
# HLA-B*40:01 [12] = experiment: as above
# HLA-B*07:02 = experiment: as above
# HLA-B*39:01 = experiment: IEDB peptide-MHC binding, purified MHC/competitive/fluorescence; filed as Kd, often an IC50 or EC50 that approximates it; ≥ and ≤ were set here for values at or beyond the usual limits of such assays
# HLA-B*40:01 [13] = experiment: as above
# HLA-A*23:01 = experiment: IEDB peptide-MHC binding, purified MHC/direct/fluorescence; filed as Kd, often an IC50 or EC50 that approximates it; ≥ and ≤ were set here for values at or beyond the usual limits of such assays; conditions: source organism: Orthohantavirus hantanense
# HLA-A*30:01 [14] = experiment: IEDB peptide-MHC binding, purified MHC/competitive/fluorescence; filed as Kd, often an IC50 or EC50 that approximates it; ≥ and ≤ were set here for values at or beyond the usual limits of such assays; conditions: source organism: Encephalitozoon cuniculi GB-M1
# HLA-A*01:01 [15] = experiment: as above; conditions: source organism: Encephalitozoon cuniculi GB-M1
# HLA-B*58:01 [16] = experiment: as above; conditions: source organism: Mycobacterium tuberculosis variant bovis BCG str. Pasteur 1173P2
# HLA-B*35:01 = experiment: IEDB peptide-MHC binding, purified MHC/direct/fluorescence; filed as Kd, often an IC50 or EC50 that approximates it; ≥ and ≤ were set here for values at or beyond the usual limits of such assays; conditions: source organism: Vibrio cholerae
# HLA-A*31:01 = experiment: as above; conditions: source organism: Vibrio cholerae
# [17] = source organism: Giardia lamblia ATCC 50803
# [18] = source organism: Escherichia coli 101-1
# [19] = source organism: Salmonella enterica subsp. enterica serovar Typhi
# [20] = source organism: Vibrio cholerae
sequence,measurement,setting,value
AALSSLAKH,IC50,HLA-A*03:01 [1],≥ 92.7 µM
same,IC50,HLA-B*15:01 [2],≥ 156 µM
same,IC50,HLA-A*11:01 [3],9.21 µM
same,IC50,HLA-A*02:01 [4],≥ 98.5 µM
AIPYFYKGK,Kd,HLA-A*03:01 [5]; [17],≥ 20 µM
same,Kd,HLA-B*58:01 [6]; [17],≥ 20 µM
same,Kd,HLA-B*27:05; [17],≥ 20 µM
same,Kd,HLA-B*15:01 [7]; [17],≥ 20 µM
same,Kd,HLA-B*44:02; [17],≥ 20 µM
same,Kd,HLA-A*30:01 [8]; [17],12.5 µM
same,Kd,HLA-A*26:01; [17],≥ 20 µM
same,Kd,HLA-A*11:01 [9]; [17],0.308 µM
same,Kd,HLA-A*69:01; [17],≥ 20 µM
same,Kd,HLA-A*24:03; [17],13 µM
same,Kd,HLA-A*02:01 [10]; [17],≥ 20 µM
same,Kd,HLA-A*01:01 [11]; [17],≥ 20 µM
same,Kd,HLA-B*08:01; [17],≥ 20 µM
same,Kd,HLA-B*40:01 [12]; [17],≥ 20 µM
same,Kd,HLA-B*07:02; [17],≥ 20 µM
FEANALSVI,Kd,HLA-B*39:01; [18],3.82 µM
same,Kd,HLA-B*40:01 [13]; [18],0.0097 µM
FFQNETQKY,Kd,HLA-A*24:03; source organism: Orthohantavirus hantanense,1.3 µM
same,Kd,HLA-A*23:01,1.4 µM
GEMLVATSL,Kd,HLA-B*40:01 [13]; source organism: Yersinia pestis Nepal516,0.0042 µM
GEVRGYLVK,Kd,HLA-B*40:01 [13]; source organism: Escherichia coli O139:H28 str. E24377A,≥ 20 µM
GGRKLKLTK,Kd,HLA-A*30:01 [14],0.246 µM
same,Kd,HLA-A*01:01 [15],≥ 20 µM
HEAEYNLSL,Kd,HLA-B*39:01; [19],0.0019 µM
same,Kd,HLA-B*40:01 [13]; [19],0.0046 µM
IASLTGWQW,Kd,HLA-B*15:01 [7]; source organism: Mycobacterium tuberculosis str. Haarlem,16 µM
same,Kd,HLA-B*58:01 [16],0.0006 µM
IELITTIGF,Kd,HLA-B*40:01 [13]; source organism: Bacillus cereus 03BB102,0.0532 µM
IPISGRITA,Kd,HLA-A*03:01 [5]; [20],≥ 20 µM
same,Kd,HLA-B*58:01 [6]; [20],≥ 20 µM
same,Kd,HLA-B*27:05; [20],≥ 20 µM
same,Kd,HLA-B*15:01 [7]; [20],≥ 20 µM
same,Kd,HLA-B*44:02; [20],≥ 20 µM
same,Kd,HLA-A*30:01 [8]; [20],≥ 20 µM
same,Kd,HLA-B*35:01,0.0172 µM
same,Kd,HLA-A*26:01; [20],≥ 20 µM
same,Kd,HLA-A*11:01 [9]; [20],≥ 20 µM
same,Kd,HLA-A*69:01; [20],≥ 20 µM
same,Kd,HLA-A*31:01,≥ 20 µM
same,Kd,HLA-A*24:03; [20],≥ 20 µM
same,Kd,HLA-A*02:01 [10]; [20],≥ 20 µM
same,Kd,HLA-A*01:01 [11]; [20],≥ 20 µM
same,Kd,HLA-B*08:01; [20],≥ 20 µM
same,Kd,HLA-B*40:01 [12]; [20],≥ 20 µM
same,Kd,HLA-B*07:02; [20],0.0244 µM
